The chains are these.
B1: des(1)-Ac-[D-Tyr2,Hyp3,Gln4,Thr5,AzaGly7,Arg(Me)9,Trp10]MS10 (peptide)
peptide: Ac-[dY][Hyp]QTF[azaGly]L[Arg(Me)]W-NH2
SMILES: CNC(=N)NCCC[C@H](NC(=O)[C@H](CC(C)C)NC(=O)NNC(=O)[C@H](Cc1ccccc1)NC(=O)[C@@H](NC(=O)[C@H](CCC(N)=O)NC(=O)[C@@H]1C[C@@H](O)CN1C(=O)[C@@H](Cc1ccc(O)cc1)NC(C)=O)[C@@H](C)O)C(=O)N[C@@H](Cc1c[nH]c2ccccc12)C(N)=O
B2: des(1)-Ac-[D-Tyr2,Hyp3,Hyp5,AzaGly7,Arg(Me)9,Trp10]MS10 (peptide)
peptide: Ac-[dY][Hyp]N[Hyp]F[azaGly]L[Arg(Me)]W-NH2
SMILES: CNC(=N)NCCC[C@H](NC(=O)[C@H](CC(C)C)NC(=O)NNC(=O)[C@H](Cc1ccccc1)NC(=O)[C@@H]1C[C@@H](O)CN1C(=O)[C@H](CC(N)=O)NC(=O)[C@@H]1C[C@@H](O)CN1C(=O)[C@@H](Cc1ccc(O)cc1)NC(C)=O)C(=O)N[C@@H](Cc1c[nH]c2ccccc12)C(N)=O
B3: des(1)-Ac-[D-Tyr2,Hyp3,Thr5,AzaGly7,Ala(cPr)8,Arg(Me)9,Trp10]MS10 (peptide)
peptide: Ac-[dY][Hyp]NTF[azaGly][Ala(cPr)][Arg(Me)]W-NH2
SMILES: CNC(=N)NCCC[C@H](NC(=O)[C@H](CC1CC1)NC(=O)NNC(=O)[C@H](Cc1ccccc1)NC(=O)[C@@H](NC(=O)[C@H](CC(N)=O)NC(=O)[C@@H]1C[C@@H](O)CN1C(=O)[C@@H](Cc1ccc(O)cc1)NC(C)=O)[C@@H](C)O)C(=O)N[C@@H](Cc1c[nH]c2ccccc12)C(N)=O
B4: des(1)-Ac-[D-Tyr2,Hyp3,Arg4,Thr5,AzaGly7,Arg(Me)9,Trp10]MS10 (peptide)
peptide: Ac-[dY][Hyp]RTF[azaGly]L[Arg(Me)]W-NH2
SMILES: CNC(=N)NCCC[C@H](NC(=O)[C@H](CC(C)C)NC(=O)NNC(=O)[C@H](Cc1ccccc1)NC(=O)[C@@H](NC(=O)[C@H](CCCNC(=N)N)NC(=O)[C@@H]1C[C@@H](O)CN1C(=O)[C@@H](Cc1ccc(O)cc1)NC(C)=O)[C@@H](C)O)C(=O)N[C@@H](Cc1c[nH]c2ccccc12)C(N)=O
B5: des(1)-Ac-[D-Tyr2,Hyp3,Ala5,AzaGly7,Arg(Me)9,Trp10]MS10 (peptide)
peptide: Ac-[dY][Hyp]NAF[azaGly]L[Arg(Me)]W-NH2
SMILES: CNC(=N)NCCC[C@H](NC(=O)[C@H](CC(C)C)NC(=O)NNC(=O)[C@H](Cc1ccccc1)NC(=O)[C@H](C)NC(=O)[C@H](CC(N)=O)NC(=O)[C@@H]1C[C@@H](O)CN1C(=O)[C@@H](Cc1ccc(O)cc1)NC(C)=O)C(=O)N[C@@H](Cc1c[nH]c2ccccc12)C(N)=O
B6: des(1)-Ac-[D-Tyr2,Hyp3,His4,Thr5,AzaGly7,Arg(Me)9,Trp10]MS10 (peptide)
peptide: Ac-[dY][Hyp]HTF[azaGly]L[Arg(Me)]W-NH2
SMILES: CNC(=N)NCCC[C@H](NC(=O)[C@H](CC(C)C)NC(=O)NNC(=O)[C@H](Cc1ccccc1)NC(=O)[C@@H](NC(=O)[C@H](Cc1c[nH]cn1)NC(=O)[C@@H]1C[C@@H](O)CN1C(=O)[C@@H](Cc1ccc(O)cc1)NC(C)=O)[C@@H](C)O)C(=O)N[C@@H](Cc1c[nH]c2ccccc12)C(N)=O
B7: des(1)-Ac-[D-Tyr2,Hyp3,Thr5,αMePhe6,AzaGly7,Arg(Me)9,Trp10]MS10 (peptide)
peptide: Ac-[dY][Hyp]NT[αMeF][azaGly]L[Arg(Me)]W-NH2
SMILES: CNC(=N)NCCC[C@H](NC(=O)[C@H](CC(C)C)NC(=O)NNC(=O)[C@](C)(Cc1ccccc1)NC(=O)[C@@H](NC(=O)[C@H](CC(N)=O)NC(=O)[C@@H]1C[C@@H](O)CN1C(=O)[C@@H](Cc1ccc(O)cc1)NC(C)=O)[C@@H](C)O)C(=O)N[C@@H](Cc1c[nH]c2ccccc12)C(N)=O
B8: des(1)-Ac-[D-Tyr2,Hyp3,Thr5,Phe(4Me)6,AzaGly7,Arg(Me)9,Trp10]MS10 (peptide)
peptide: Ac-[dY][Hyp]NT[Phe(4-Me)][azaGly]L[Arg(Me)]W-NH2
SMILES: CNC(=N)NCCC[C@H](NC(=O)[C@H](CC(C)C)NC(=O)NNC(=O)[C@H](Cc1ccc(C)cc1)NC(=O)[C@@H](NC(=O)[C@H](CC(N)=O)NC(=O)[C@@H]1C[C@@H](O)CN1C(=O)[C@@H](Cc1ccc(O)cc1)NC(C)=O)[C@@H](C)O)C(=O)N[C@@H](Cc1c[nH]c2ccccc12)C(N)=O
B9: des(1)-Ac-[D-Tyr2,Hyp3,Dab4,Thr5,AzaGly7,Arg(Me)9,Trp10]MS10 (peptide)
peptide: Ac-[dY][Hyp][Dab]TF[azaGly]L[Arg(Me)]W-NH2
SMILES: CNC(=N)NCCC[C@H](NC(=O)[C@H](CC(C)C)NC(=O)NNC(=O)[C@H](Cc1ccccc1)NC(=O)[C@@H](NC(=O)[C@H](CCN)NC(=O)[C@@H]1C[C@@H](O)CN1C(=O)[C@@H](Cc1ccc(O)cc1)NC(C)=O)[C@@H](C)O)C(=O)N[C@@H](Cc1c[nH]c2ccccc12)C(N)=O
B10: des(1)-Ac-[D-Tyr2,Hyp3,D-Ala5,AzaGly7,Arg(Me)9,Trp10]MS10 (peptide)
peptide: Ac-[dY][Hyp]N[dA]F[azaGly]L[Arg(Me)]W-NH2
SMILES: CNC(=N)NCCC[C@H](NC(=O)[C@H](CC(C)C)NC(=O)NNC(=O)[C@H](Cc1ccccc1)NC(=O)[C@@H](C)NC(=O)[C@H](CC(N)=O)NC(=O)[C@@H]1C[C@@H](O)CN1C(=O)[C@@H](Cc1ccc(O)cc1)NC(C)=O)C(=O)N[C@@H](Cc1c[nH]c2ccccc12)C(N)=O
B11: des(1)-Ac-[D-Tyr2,Hyp3,Cit4,Thr5,AzaGly7,Arg(Me)9,Trp10]MS10 (peptide)
peptide: Ac-[dY][Hyp][Cit]TF[azaGly]L[Arg(Me)]W-NH2
SMILES: CNC(=N)NCCC[C@H](NC(=O)[C@H](CC(C)C)NC(=O)NNC(=O)[C@H](Cc1ccccc1)NC(=O)[C@@H](NC(=O)[C@H](CCCNC(N)=O)NC(=O)[C@@H]1C[C@@H](O)CN1C(=O)[C@@H](Cc1ccc(O)cc1)NC(C)=O)[C@@H](C)O)C(=O)N[C@@H](Cc1c[nH]c2ccccc12)C(N)=O
B12: des(1)-Ac-[D-Tyr2,Hyp3,Thr5,Phe(2Me)6,AzaGly7,Arg(Me)9,Trp10]MS10 (peptide)
peptide: Ac-[dY][Hyp]NT[Phe(2-Me)][azaGly]L[Arg(Me)]W-NH2
SMILES: CNC(=N)NCCC[C@H](NC(=O)[C@H](CC(C)C)NC(=O)NNC(=O)[C@H](Cc1ccccc1C)NC(=O)[C@@H](NC(=O)[C@H](CC(N)=O)NC(=O)[C@@H]1C[C@@H](O)CN1C(=O)[C@@H](Cc1ccc(O)cc1)NC(C)=O)[C@@H](C)O)C(=O)N[C@@H](Cc1c[nH]c2ccccc12)C(N)=O
B13: des(1)-Ac-[D-Tyr2,Hyp3,Dap4,Thr5,AzaGly7,Arg(Me)9,Trp10]MS10 (peptide)
peptide: Ac-[dY][Hyp][Dap]TF[azaGly]L[Arg(Me)]W-NH2
SMILES: CNC(=N)NCCC[C@H](NC(=O)[C@H](CC(C)C)NC(=O)NNC(=O)[C@H](Cc1ccccc1)NC(=O)[C@@H](NC(=O)[C@H](CN)NC(=O)[C@@H]1C[C@@H](O)CN1C(=O)[C@@H](Cc1ccc(O)cc1)NC(C)=O)[C@@H](C)O)C(=O)N[C@@H](Cc1c[nH]c2ccccc12)C(N)=O
B14: des(1)-Ac-[D-Tyr2,Hyp3,Thr5,Phe(3Me)6,AzaGly7,Arg(Me)9,Trp10]MS10 (peptide)
peptide: Ac-[dY][Hyp]NT[Phe(3-Me)][azaGly]L[Arg(Me)]W-NH2
SMILES: CNC(=N)NCCC[C@H](NC(=O)[C@H](CC(C)C)NC(=O)NNC(=O)[C@H](Cc1cccc(C)c1)NC(=O)[C@@H](NC(=O)[C@H](CC(N)=O)NC(=O)[C@@H]1C[C@@H](O)CN1C(=O)[C@@H](Cc1ccc(O)cc1)NC(C)=O)[C@@H](C)O)C(=O)N[C@@H](Cc1c[nH]c2ccccc12)C(N)=O
B15: des(1)-Ac-[D-Tyr2,Hyp3,Gly5,AzaGly7,Arg(Me)9,Trp10]MS10 (peptide)
peptide: Ac-[dY][Hyp]NGF[azaGly]L[Arg(Me)]W-NH2
SMILES: CNC(=N)NCCC[C@H](NC(=O)[C@H](CC(C)C)NC(=O)NNC(=O)[C@H](Cc1ccccc1)NC(=O)CNC(=O)[C@H](CC(N)=O)NC(=O)[C@@H]1C[C@@H](O)CN1C(=O)[C@@H](Cc1ccc(O)cc1)NC(C)=O)C(=O)N[C@@H](Cc1c[nH]c2ccccc12)C(N)=O
B16: des(1)-Ac-[D-Tyr2,D-Trp3,Asp(NHBzl)4,Thr5,AzaGly7,Arg(Me)9,Trp10]MS10 (peptide)
peptide: Ac-[dY][dW][Asp(NHBzl)]TF[azaGly]L[Arg(Me)]W-NH2
SMILES: CNC(=N)NCCC[C@H](NC(=O)[C@H](CC(C)C)NC(=O)NNC(=O)[C@H](Cc1ccccc1)NC(=O)[C@@H](NC(=O)[C@H](CC(=O)NCc1ccccc1)NC(=O)[C@@H](Cc1c[nH]c2ccccc12)NC(=O)[C@@H](Cc1ccc(O)cc1)NC(C)=O)[C@@H](C)O)C(=O)N[C@@H](Cc1c[nH]c2ccccc12)C(N)=O
B17: des(1)-Ac-[D-Tyr2,Hyp3,Gly4,Thr5,AzaGly7,Arg(Me)9,Trp10]MS10 (peptide)
peptide: Ac-[dY][Hyp]GTF[azaGly]L[Arg(Me)]W-NH2
SMILES: CNC(=N)NCCC[C@H](NC(=O)[C@H](CC(C)C)NC(=O)NNC(=O)[C@H](Cc1ccccc1)NC(=O)[C@@H](NC(=O)CNC(=O)[C@@H]1C[C@@H](O)CN1C(=O)[C@@H](Cc1ccc(O)cc1)NC(C)=O)[C@@H](C)O)C(=O)N[C@@H](Cc1c[nH]c2ccccc12)C(N)=O

Numbered stars: 1 amine (or outer) side, 2 acyl side, 3 side chain; on linkers, the order of the positions; unused ones are H or OH. Square brackets hold non-standard residues; d marks the D form. Asp(NHBzl) = N-omega-benzylasparagine, O=C(C[C@H](N[*:1])C(=O)[*:2])NCc1ccccc1; Phe(3-Me) = Cc1cccc(C[C@H](N)C(=O)O)c1; Phe(4-Me) = Cc1ccc(C[C@H](N)C(=O)O)cc1; Phe(2-Me) = Cc1ccccc1C[C@H](N)C(=O)O; Arg(Me) = CNC(=N)NCCC[C@H](N)C(=O)O; Ala(cPr) = N[C@@H](CC1CC1)C(=O)O; Hyp = O=C(O)[C@@H]1C[C@@H](O)CN1; αMeF = C[C@](N)(Cc1ccccc1)C(=O)O; Cit = NC(=O)NCCC[C@H](N)C(=O)O; Dab = NCC[C@H](N)C(=O)O; Dap = NC[C@H](N)C(=O)O; azaGly = NNC(=O)O

Chain of human OT7T175 (metastin receptor) (human) (Q969F8 whole entry L364H): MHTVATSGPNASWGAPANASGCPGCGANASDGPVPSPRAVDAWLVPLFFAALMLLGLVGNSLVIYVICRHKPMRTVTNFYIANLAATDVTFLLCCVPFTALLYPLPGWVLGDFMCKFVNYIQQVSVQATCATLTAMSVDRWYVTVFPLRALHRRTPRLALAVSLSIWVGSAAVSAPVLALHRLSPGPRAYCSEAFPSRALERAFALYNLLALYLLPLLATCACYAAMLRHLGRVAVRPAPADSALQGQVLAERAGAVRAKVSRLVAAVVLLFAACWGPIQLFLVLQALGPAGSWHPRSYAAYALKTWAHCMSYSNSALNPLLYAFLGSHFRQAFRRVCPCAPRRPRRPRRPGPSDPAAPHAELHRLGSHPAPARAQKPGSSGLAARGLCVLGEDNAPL

The assay has as its target human OT7T175 (metastin receptor) (human) (UniProt Q969F8). The experiment in a line: cell-based or functional assay.
In turn, B1 showed an intracellular Ca ion level-increasing activity [specific activity to Metastin (1-54)] (relative to Metastin (1-54)) of 0.8.
As for B2, the intracellular Ca ion level-increasing activity [specific activity to Metastin (1-54)] (relative to Metastin (1-54)) stood at 1.5.
B3 registered an intracellular Ca ion level-increasing activity [specific activity to Metastin (1-54)] (relative to Metastin (1-54)) of 0.6.
As to B4, the intracellular Ca ion level-increasing activity [specific activity to Metastin (1-54)] (relative to Metastin (1-54)) worked out at 1.4.
In the case of B5, the intracellular Ca ion level-increasing activity [specific activity to Metastin (1-54)] (relative to Metastin (1-54)) was 0.5.
Ac-[dY][Hyp]N[dT]F[azaGly]L[Arg(Me)]W-NH2 [des(1)-Ac-[D-Tyr2,Hyp3,D-Thr5,AzaGly7,Arg(Me)9,Trp10]MS10] had an intracellular Ca ion level-increasing activity [specific activity to Metastin (1-54)] (relative to Metastin (1-54)) of 0.9.
Take B6: the intracellular Ca ion level-increasing activity [specific activity to Metastin (1-54)] (relative to Metastin (1-54)) was 1.1.
For Ac-[dY][Hyp][dN]TF[azaGly]L[Arg(Me)]W-NH2 [des(1)-Ac-[D-Tyr2,Hyp3,D-Asn4,Thr5,AzaGly7,Arg(Me)9,Trp10]MS10] the value was 0.9.
With B7, the intracellular Ca ion level-increasing activity [specific activity to Metastin (1-54)] (relative to Metastin (1-54)) was found to be 1.4.
Consider B8, for which the intracellular Ca ion level-increasing activity [specific activity to Metastin (1-54)] (relative to Metastin (1-54)) is 0.8.
Take B9: the intracellular Ca ion level-increasing activity [specific activity to Metastin (1-54)] (relative to Metastin (1-54)) stood at 1.
As for B10, the figure is 0.5.
Molecule B11 gave an intracellular Ca ion level-increasing activity [specific activity to Metastin (1-54)] (relative to Metastin (1-54)) of 1.
B12 returned an intracellular Ca ion level-increasing activity [specific activity to Metastin (1-54)] (relative to Metastin (1-54)) of 0.6.
For the molecule B13, the intracellular Ca ion level-increasing activity [specific activity to Metastin (1-54)] (relative to Metastin (1-54)) was 0.9.
Consider B14, for which the intracellular Ca ion level-increasing activity [specific activity to Metastin (1-54)] (relative to Metastin (1-54)) was 0.7.
As for B15, the figure is 0.5.
B16: the intracellular Ca ion level-increasing activity [specific activity to Metastin (1-54)] (relative to Metastin (1-54)) was determined as 3.6.
As for B17, the figure is 0.7; as for {4‑ureidobenzoyl}-F[azaGly]L[Arg(Me)]W-NH2 [des(1-5)-4-Ureidobenzoyl-[AzaGly7,Arg(Me)9,Trp10]MS10], 1.3.

Values taken from patent publication US20090105152A1.
